For assay [1], the target named is T1, ProAgio (D1-CD2 variant 3) ( (human and rat D1-CD2 are …, UniProt P06729 25-206)). Briefly: SPR. (Surface plasmon resonance follows binding to a sensor surface in real time, without labels.)
Assay [2] concerns the target T1, ProAgio (D1-CD2 variant 3). Kind of assay: ELISA; without polyLys. For orientation: In an ELISA, binding on a coated surface is turned into a signal by an enzyme label.

Broadly, the Kd is the concentration at which binding is half-saturated. A low value points to higher affinity.

B1: recombinant integrin αvβ3 (commercial) (receptor)
chain 1: FNLDVDSPAEYSGPEGSYFGFAVDFFVPSASSRMFLLVGAPKANTTQPGIVEGGQVLKCDWSSTRRCQPIEFDATGNRDYAKDDPLEFKSHQWFGASVRSKQDKILACAPLYHWRTEMKQEREPVGTCFLQDGTKTVEYAPCRSQDIDADGQGFCQGGFSIDFTKADRVLLGGPGSFYWQGQLISDQVAEIVSKYDPNVYSIKYNNQLATRTAQAIFDDSYLGYSVAVGDFNGDGIDDFVSGVPRAARTLGMVYIYDGKNMSSLYNFTGEQMAAYFGFSVAATDINGDDYADVFIGAPLFMDRGSDGKLQEVGQVSVSLQRASGDFQTTKLNGFEVFARFGSAIAPLGDLDQDGFNDIAIAAPYGGEDKKGIVYIFNGRSTGLNAVPSQILEGQWAARSMPPSFGYSMKGATDIDKNGYPDLIVGAFGVDRAILYRARPVITVNAGLEVYPSILNQDNKTCSLPGTALKVSCFNVRFCLKADGKGVLPRKLNFQVELLLDKLKQKGAIRRALFLYSRSPSHSKNMTISRGGLMQCEELIAYLRDESEFRDKLTPITIFMEYRLDYRTAADTTGLQPILNQFTPANISRQAHILLDCGEDNVCKPKLEVSVDSDQKKIYIGDDNPLTLIVKAQNQGEGAYEAELIVSIPLQADFIGVVRNNEALARLSCAFKTENQTRQVVCDLGNPMKAGTQLLAGLRFSVHQQSEMDTSVKFDLQIQSSNLFDKVSPVVSHKVDLAVLAAVEIRGVSSPDHVFLPIPNWEHKENPETEEDVGPVVQHIYELRNNGPSSFSKAMLHLQWPYKYNNNTLLYILHYDIDGPMNCTSDMEINPLRIKISSLQTTEKNDTVAGQGERDHLITKRDLALSEGDIHTLGCGVAQCLKIVCQVGRLDRGKSAILYVKSLLWTETFMNKENQNHSYSLKSSASFNVIEFPYKNLPIEDITNSTLVTTNVTWGIQPAPMPV
chain 2: GPNICTTRGVSSCQQCLAVSPMCAWCSDEALPLGSPRCDLKENLLKDNCAPESIEFPVSEARVLEDRPLSDKGSGDSSQVTQVSPQRIALRLRPDDSKNFSIQVRQVEDYPVDIYYLMDLSYSMKDDLWSIQNLGTKLATQMRKLTSNLRIGFGAFVDKPVSPYMYISPPEALENPCYDMKTTCLPMFGYKHVLTLTDQVTRFNEEVKKQSVSRNRDAPEGGFDAIMQATVCDEKIGWRNDASHLLVFTTDAKTHIALDGRLAGIVQPNDGQCHVGSDNHYSASTTMDYPSLGLMTEKLSQKNINLIFAVTENVVNLYQNYSELIPGTTVGVLSMDSSNVLQLIVDAYGKIRSKVELEVRDLPEELSLSFNATCLNNEVIPGLKSCMGLKIGDTVSFSIEAKVRGCPQEKEKSFTIKPVGFKDSLIVQVTFDCDCACQAQAEPNSHRCNNGNGTFECGVCRCGPGWLGSQCECSEEDYRPSQQDECSPREGQPVCSQRGECLCGQCVCHSSDFGKITGKYCECDDFSCVRYKGEMCSGHGQCSCGDCLCDSDWTGYYCNCTTRTDTCMSSNGLLCSGRGKCECGSCVCIQPGSYGDTCEKCPTCPDACTFKKECVECKKFDRGALHDENTCNRYCRDEIESVKELKDTGKDAVNCTYKNEDDCVVRFQYYEDSSGKSILYVVEEPECPKGPD
For B1, the Kd in assay [1] was 2 nM; in assay [2], 35 nM.

Values taken from paper PMC4895024 (2016).
